Substitutions are numbered along the chain they refer to. Like-named read-outs stand apart in the source and are kept apart here.
B1: Tocilizumab (antibody, human IgG1, kappa, V domains shown)
VH: QVQLQESGPGLVRPSQTLSLTCTVSGYSITSDHAWSWVRQPPGRGLEWIGYISYSGITTYNPSLKSRVTMLRDTSKNQFSLRLSSVTAADTAVYYCARSLARTTAMDYWGQGSLVTVSS
VL: DIQMTQSPSSLSASVGDRVTITCRASQDISSYLNWYQQKPGKAPKLLIYYTSRLHSGVPSRFSGSGSGTDFTFTISSLQPEDIATYYCQQGNTLPYTFGQGTKVEIKR
notes: In house made; also called benchmark; Actemra
B2: mouse anti-IL6R monoclonal antibody 1F7 (antibody, V domains shown)
VH: QVQLQQPGAELVKPGASVKLSCKASDYTFTSYWMHWVKQRPGQGLEWIGEINPSNGRTNYNEKFKNKATLTVDKSSSTAYVQLYSLTSEDSAVYYCARLSIHYVFDYWGQGTTLTVSS
VL: ELVLTQSPTTMAASPGEKITFTCSASSSISSNYLHWYQQKPGFSPKLLISGTSNLASGVPPRFSGSGSGTSYSLTIVTMEAEDVATYYCQQGSGIPFTFGSGTKLEIK
notes: Mouse hybridoma mAb
B3: mouse anti-IL6R monoclonal antibody 1H7 (antibody, V domains shown)
VH: QVQLQQPGTELVKPGASVKLSCKASGYTFTNYWMHWVKQRPGQGLDWIGEINPTNGRTNYNENFKSKATLTVDKSSSTAYMQLSSLTSEDSAVYYCARLNTHYVFDSWGQGTTLTLSS
VL: B2 VL with L2I, M11L, A25V, G51R, N54T, P61A, V77G, I107L
notes: Mouse hybridoma mAb
B4: mouse anti-IL6R monoclonal antibody 1A3 (antibody, V domains shown)
VH: QVQLQQPGAELVKPGASVKLSCKASGYTFTSYWMHWVKQRPAQGLEWIGEINPSNGRTNFNEKFKTKATLTVDKSSNTAYMQLSSLTSEDSAVYSCLRLNTHYVFDYWGQGTTLTVSS
VL: B2 VL with L2I, F21I, G51R, P61T, V77G, E82G
notes: Mouse hybridoma mAb purified on Protein A
B5: mouse anti-IL6R monoclonal antibody 1D4 (antibody, V domains shown)
VH: B3 VH with T9A, N31S, Q39V, D46E, N63D, D73N, K74S, S107Y, L116V
VL: B2 VL with L2I, T10I, M11L, A25V, S50Y, G51R, P61A, V77G
notes: Mouse hybridoma mAb
B6: Chimeric 1H7 (antibody, human IgG1, kappa, V domains shown)
VH: B3 VH
VL: EIVLTQSPTTLAASPGEKITFTCSVSSSISSNYLHWYQQKPGFSPKLLISRTSTLASGVPARFSGSGSGTSYSLTIGTMEAEDVATYYCQQGSGIPFTFGSGTKLELKR
notes: Mouse variable regions on human IgG1 / human kappa constant regions; also called chimeric antibody 1H7
B7: humanized antibody hu1H7-V5 (antibody, human IgG1, kappa, V domains shown)
VH: QVQLVQSGAEVKKPGASVKVSCKASGYTFTNYWMHWVRQAPGQGLEWIGEINPTNGRTNYNENFKSRVTLTVDTSTSTVYMELSSLRSEDTAVYYCARLNTHYVFDSWGQGTLVTVSS
VL: EIVLTQSPGTLSLSPGERATLSCSVSSSISSNYLHWYQQKPGLSPRLLISRTSTLASGIPARFSGSGSGTEYTLTISRMQSEDFAVYYCQQGSGIPFTFGQGTKLEIKR
notes: Human IgG1 / kappa

What was measured:
human IL6R-Fc protein [1] = target: T1, human IL6R-Fc protein (human, biotin-labeled in the ELISAs (sites not given)); assay: capture ELISA: antibody captured on anti-IgG F(ab')2 coated plate, then biotin-labeled human IL6R-Fc, streptavidin-HRP
T1 construct: In house made; also called biotin-labeled human IL6R-Fc protein
Method: For the capture ELISA, 96-well micro plates were coated with 2 μg/ml AffiniPure Goat Anti-Mouse IgG, F(ab′)₂ fragment specific (Jackson ImmunoResearch Laboratories, Inc., Cat #115-005-072) in PBS, 100 μl/well, and incubated for 2 hours at 37° C. Plates were washed once with wash buffer (PBS+0.05% v/v Tween-20, PBST) and then blocked with 200 μl/well blocking buffer (5% w/v non-fatty milk in PBST) overnight at 4° C. […] Plates containing captured anti-IL6R antibodies were incubated with biotin-labeled human IL6R-Fc protein (prepared in house, SEQ ID NO: 43, 39.5 ng/ml in 2.5% w/v non-fatty milk in PBST, 100 μl/well) for 40 minutes at 37° C., washed 4 times, and incubated with streptavidin conjugated HRP (1:10000 dilution in PBST, Jackson ImmunoResearch Laboratories, Inc., Cat #016-030-084, 100 μl/well) for 40 minutes at 37° C. After a final wash, plates were incubated with 100 μl/well ELISA substrate TMB (InnoReagents, Cat #TMB-S-002). The reaction was stopped 3-10 minutes later at room temperature with 50 μl/well 1M H₂SO₄, and the absorbance of each well was read on a microplate reader using dual wavelength mode at 450 nm for TMB and 630 nm as the reference wavelength. Then the OD (450-630) values were plotted against antibody concentration. Data was analyzed using Graphpad Prism software and EC₅₀ values were reported.
For the capture ELISA, 96-well micro plates were coated with 2 μg/ml goat anti-human IgG (AffiniPure Goat Anti-Human IgG, F(ab′)₂ fragment specific, Jackson ImmunoResearch Laboratories, Inc., Cat #109-005-097) instead of goat anti-mouse IgG F(ab′)₂ fragment, 100 μl/well.
Target sequence in this assay (chain, as listed by the source limits assumed): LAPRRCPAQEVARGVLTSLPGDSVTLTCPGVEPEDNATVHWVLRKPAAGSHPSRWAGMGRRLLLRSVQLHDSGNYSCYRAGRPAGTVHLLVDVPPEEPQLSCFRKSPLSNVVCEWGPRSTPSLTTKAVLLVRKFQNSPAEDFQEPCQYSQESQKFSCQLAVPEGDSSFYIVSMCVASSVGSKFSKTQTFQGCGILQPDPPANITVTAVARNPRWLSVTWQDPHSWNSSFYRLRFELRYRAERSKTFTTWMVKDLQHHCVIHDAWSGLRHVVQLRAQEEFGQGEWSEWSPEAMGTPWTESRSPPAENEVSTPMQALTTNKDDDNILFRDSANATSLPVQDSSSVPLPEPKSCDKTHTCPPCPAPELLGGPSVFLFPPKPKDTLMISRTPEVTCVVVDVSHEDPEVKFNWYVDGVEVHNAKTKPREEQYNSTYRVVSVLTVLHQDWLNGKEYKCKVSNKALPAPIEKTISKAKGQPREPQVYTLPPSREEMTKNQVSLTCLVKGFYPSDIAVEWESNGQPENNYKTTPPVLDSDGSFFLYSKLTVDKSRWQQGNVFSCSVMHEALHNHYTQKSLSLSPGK

human IL6R-Fc protein [2] = target: T1, human IL6R-Fc protein; assay: benchmark blocking ELISA: antibody pre-incubated with biotin-labeled human IL6R-Fc, added to plate-coated Tocilizumab (competitor: Tocilizumab)
Method: (§1) ELISA plates were washed once with wash buffer (PBS+0.05% v/v Tween-20, PBST) and then blocked with 200 μl/well blocking buffer (5% w/v non-fatty milk in PBST) overnight at 4° C.
(§2) The next day, the anti-IL6R antibodies of the disclosure or controls were diluted with biotin labeled human IL6R-Fc protein (SEQ ID NO: 43, 13.6 ng/ml in 2.5% w/v non-fatty milk in PBST), starting at 100 nM with a 5-fold serial dilution, and incubated at room temperature for 40 minutes. […] After incubation at 37° C. for 40 minutes, plates were washed 4 times using wash buffer. Then streptavidin conjugated HRP was added, and the plates were incubated for 40 minutes at 37° C. The plates were finally washed using wash buffer, and added with TMB. The reaction was stopped using 1M […], and the absorbance was read on a microplate reader using dual wavelength mode with 450 nm for TMB and 630 nm as the reference wavelength. The OD (450-630) values were plotted against antibody concentration. Data was analyzed using Graphpad Prism software and IC₅₀ values were reported.

macaca IL6R-his protein = target: T2, macaca IL6R-his protein (macaca mulatta); assay: indirect ELISA on plate-coated macaca IL6R-his
T2 chain: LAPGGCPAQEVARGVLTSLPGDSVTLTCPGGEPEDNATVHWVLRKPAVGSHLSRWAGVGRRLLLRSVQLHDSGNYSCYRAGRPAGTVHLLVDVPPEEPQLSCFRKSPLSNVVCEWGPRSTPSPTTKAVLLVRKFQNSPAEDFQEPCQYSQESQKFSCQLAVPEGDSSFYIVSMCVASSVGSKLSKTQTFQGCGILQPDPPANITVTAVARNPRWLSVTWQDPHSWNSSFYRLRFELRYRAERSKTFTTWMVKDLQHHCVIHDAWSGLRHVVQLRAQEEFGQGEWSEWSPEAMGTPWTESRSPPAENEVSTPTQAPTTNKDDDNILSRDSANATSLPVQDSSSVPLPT
Method: The anti-IL6R antibodies were tested for their cross-reaction with macaca IL6R. Briefly, 96-well micro plates were coated with 2 μg/ml macaca IL6R-his protein (in house made, amino acid sequence set forth in SEQ ID NO:45) in carbonate/bicarbonate buffer (pH 9.6), 100 μl/well, for 2 hours at 37° C. ELISA plates were washed once with wash buffer (PBS+0.05% v/v Tween-20, PBST) and then blocked with 200 μl/well blocking buffer (5% w/v non-fatty milk in PBST) for 2 hours at 37° C. Plates were washed 4 times and incubated with 100 μl/well serially diluted anti-IL6R antibodies of the disclosure or controls, starting at 66.67 nM with 5-fold serial dilution in PBST with 2.5% w/v non-fat milk, and incubated at 37° C. for 40 minutes. ELISA plates were washed 4 times again and incubated with 100 μl/well Peroxidase AffiniPure Goat Anti-Mouse IgG, Fcγ Fragment Specific (1:5000 dilution in PBST buffer, Jackson ImmunoResearch Laboratories, Inc., Cat #115-035-071) for 40 minutes at 37° C. After the final wash, plates were incubated with 100 μl/well TMB (InnoReagents). The reaction was stopped 3-10 minutes later at room temperature with 50 μl/well 1M H₂SO₄, and the absorbance of each well was read on a microplate reader using dual wavelength mode with 450 nm for TMB and 630 nm as the reference wavelength. Then the OD (450-630) values were plotted against antibody concentration. Data was analyzed using Graphpad Prism software and EC₅₀ values were reported.

human IL6R-Fc protein [3] = target: T1, human IL6R-Fc protein; assay: benchmark blocking ELISA: antibody pre-incubated with biotin-labeled human IL6R-Fc, added to plate-coated Tocilizumab (competitor: Tocilizumab); remark: listed apart in the source
Method: as §1, §2
Target sequence in this assay (chain, as listed by the source limits assumed): as the sequence (chain, as listed by the source limits assumed) above

Binder	EC50 (human IL6R-Fc protein [1])	IC50 (human IL6R-Fc protein [2])	EC50 (macaca IL6R-his protein)	IC50 (human IL6R-Fc protein [3])
B1	0.504 nM	2.58 nM	0.0589 nM	0.862 nM
B2	–	0.311 nM	–	–
B3	0.164 nM	–	–	0.237 nM
B4	–	–	0.228 nM	–
B5	–	0.467 nM	0.175 nM	–
B6	0.201 nM	–	–	0.203 nM
B7	0.31 nM	–	–	0.364 nM

— US20230167182A1 (BIOSION, published 2023)
